Experimental data published in patent publication US20050118638A1 (RSR, published 2005).
Where a chain is given by its changes, count along the chain named.

B1: 3B3 IgG (antibody, V domains shown)
VH: DVQLQQPGAELVKPGASVKLSCTTSGVNIKDTYMHWMKQRPEQGLEWIGRIDPANGNTKYDPKFRGKATITADTSSNTVYVQLRSLTSEDTAVYYCAYDGYWGQGTLVTVSA
VL: NIVMTQTPASLAVSLGQRATISCRASESVDSYGNNFMHWYQQKPGQSPRLLIYRASNLESGIPARFSGSGSRTDFTLTTNPVEADDVATYYCQQSHKDPLTFGAGTKLELK
B2: 3B3 Fab (Fab, V domains shown)
VH: B1 VH
VL: NIVMTQTPASLAVSLGQRATISCRASESVDSYGNNFMHWYQQKPGQSPRLLIYRASNLESGIPARFSGSGSRTDFTLTTNPVEADDVATYYCQQSHKDPLTFGAGTKLELKR
B3: 4D7 IgG (antibody, V domains shown, not shown: a dimerising Fc or GST)
VH: DVQLKHSGPELVKPGASMKISCKASGYSFTGYTMNWVKQSHGKNLEWIGLINPYTGGTNYNQKFKGKAKLTVDKSSSTAFMELLSLTSEDSAVYYCARDGNLDYWGQGTTLTVSS
VL: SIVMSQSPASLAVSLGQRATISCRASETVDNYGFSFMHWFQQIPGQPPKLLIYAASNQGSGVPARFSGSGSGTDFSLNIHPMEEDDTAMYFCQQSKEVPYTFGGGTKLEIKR
notes: mouse monoclonal IgG; also called Mab 4D7
B4: 16E5 IgG (antibody, V domains shown, not shown: a dimerising Fc or GST)
VH: DVQLVQSGPELVKPGASVKMSCKASGYSFTGYNMHWVKQSHGKSLEWIGYIDPYNGATSYNQKFEDKATLTVDKSSSTAYMQLNSLTSEDSAVYYCARRWDWDPYAMDYWGQGTSVTVSS
VL: DILLTQSPAILSVSPGERVSFSCRASQSIGTSIHWYQQRTNGSPRLLIKYASESISGIFSRFSGSGSGTDFTLTINSVESEDIADYYCQQSNRWPLTFGAGTKLELKR
notes: mouse monoclonal IgG; also called MAb 16E5
B5: 14D3 Fab (Fab, V domains shown)
VH: B4 VH with L4M, V5Q, S7P, V18L, N55S, D66G
VL: B4 VL with D1N, L4M, S22A, F59P, T74S, S91T
notes: Fab of the mouse MAb
B6: 16E5 Fab (Fab, V domains shown)
VH: B4 VH
VL: B4 VL
notes: papain Fab of the mouse MAb
B7: 17D2 Fab (Fab, V domains shown)
VH: B4 VH with L4I, V5Q, G31A, S40T, N55S, N61H, E65K, D66G, Q82R
VL: B4 VL with D1S, I2V, L3E, L4M, T5S, V19I, E53A, F59P, T74S, R93S
notes: Fab of the mouse MAb
B8: 17D2 IgG (antibody, V domains shown, not shown: a dimerising Fc or GST)
VH: B4 VH with L4I, V5Q, G31A, S40T, N55S, N61H, E65K, D66G, Q82R
VL: B4 VL with D1S, I2V, L3E, L4M, T5S, V19I, E53A, F59P, T74S, R93S
notes: mouse monoclonal IgG
B9: 14D3 IgG (antibody, V domains shown, not shown: a dimerising Fc or GST)
VH: B4 VH with L4M, V5Q, S7P, V18L, N55S, D66G
VL: B4 VL with D1N, L4M, S22A, F59P, T74S, S91T
notes: mouse monoclonal IgG; also called MAb 14D3
B10: 2B4 IgG (antibody, V domains shown, not shown: a dimerising Fc or GST)
VH: DVQLQQSGTVLARPGASVRMSCKASGYSFTRYWIHWLKQRPGQGLEWIGAIFPGNRDTSYNQRFKGKAEVTAVTSASTAYLDLSSLTNEDSAVYYCTRWPYYGSIYVNFDYWGQGTTLTVSS
VL: DIVMTQSPLSLPVSLGDQASISCRTSQNLVHRNGNTYLHWYLQKPGQSPKLLIYKISNRFSGVPDRFSGSGSGTDFTLKISRVEAEDLGVYFCSQGTHVPPTFGGGTKLEIKR
notes: mouse monoclonal IgG; also called 2B4 MAb
B11: 3C7 IgG (antibody, V domains shown, not shown: a dimerising Fc or GST)
VH: B3 VH with E46D, T55N, N59S, N61D, K69T, F80Y, N101L, L102M, T110S, L111V
VL: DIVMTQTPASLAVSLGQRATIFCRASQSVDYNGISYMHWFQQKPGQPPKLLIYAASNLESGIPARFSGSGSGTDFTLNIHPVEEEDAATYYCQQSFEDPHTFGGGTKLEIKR
notes: mouse monoclonal IgG

Biological target: TSH receptor of isolated porcine thyroid cells (porcine, UniProt Q8SPP9 22-764)
Assay: cell-based or functional assay

Sequence of TSH receptor of isolated porcine thyroid cells (Q8SPP9 22-764): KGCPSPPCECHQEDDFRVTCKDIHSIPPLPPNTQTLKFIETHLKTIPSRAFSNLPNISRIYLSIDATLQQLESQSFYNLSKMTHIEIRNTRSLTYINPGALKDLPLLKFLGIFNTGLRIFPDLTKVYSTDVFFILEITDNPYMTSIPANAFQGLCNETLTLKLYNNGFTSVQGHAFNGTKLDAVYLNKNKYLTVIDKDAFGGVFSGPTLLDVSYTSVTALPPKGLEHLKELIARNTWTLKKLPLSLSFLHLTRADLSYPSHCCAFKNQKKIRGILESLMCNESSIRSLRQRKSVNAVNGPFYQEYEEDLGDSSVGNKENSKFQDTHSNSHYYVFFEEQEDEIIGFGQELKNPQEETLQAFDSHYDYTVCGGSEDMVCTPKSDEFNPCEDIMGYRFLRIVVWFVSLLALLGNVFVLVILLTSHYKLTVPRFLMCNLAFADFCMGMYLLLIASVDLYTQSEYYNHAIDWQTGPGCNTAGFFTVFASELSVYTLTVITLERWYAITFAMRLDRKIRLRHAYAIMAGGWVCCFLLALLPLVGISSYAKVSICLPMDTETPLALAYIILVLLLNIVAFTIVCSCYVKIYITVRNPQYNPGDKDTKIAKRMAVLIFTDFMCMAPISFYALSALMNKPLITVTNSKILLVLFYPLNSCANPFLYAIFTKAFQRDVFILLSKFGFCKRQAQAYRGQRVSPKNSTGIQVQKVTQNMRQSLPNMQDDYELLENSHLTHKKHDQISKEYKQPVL

| Stimulation (%) of cyclic AMP, isolated porcine thyroid cells; 20 µg/ml [%] | Stimulation (%) of cyclic AMP, isolated porcine thyroid cells; 200 µg/ml [%] | Stimulation (%) of cyclic AMP, isolated porcine thyroid cells; 2 µg/ml [%] | Binder |
| --- | --- | --- | --- |
| 37 | 34 | – | B1 |
| – | 42 | – | B2 |
| 31 | 259 | – | B3 |
| 332 | 466 | 269 | B4 |
| – | 648 | – | B5 |
| – | 425 | – | B6 |
| – | 274 | – | B7 |
| 207 | 377 | 134 | B8 |
| 351 | 557 | 323 | B9 |
| 100 | – | 116 | B10 |

Biological target: human TSHR expressed on Chinese hamster ovary (CHO) cells (human, UniProt P16473 21-764)
Assay: cell-based or functional assay

Sequence of human TSHR expressed on Chinese hamster ovary (CHO) cells (P16473 21-764): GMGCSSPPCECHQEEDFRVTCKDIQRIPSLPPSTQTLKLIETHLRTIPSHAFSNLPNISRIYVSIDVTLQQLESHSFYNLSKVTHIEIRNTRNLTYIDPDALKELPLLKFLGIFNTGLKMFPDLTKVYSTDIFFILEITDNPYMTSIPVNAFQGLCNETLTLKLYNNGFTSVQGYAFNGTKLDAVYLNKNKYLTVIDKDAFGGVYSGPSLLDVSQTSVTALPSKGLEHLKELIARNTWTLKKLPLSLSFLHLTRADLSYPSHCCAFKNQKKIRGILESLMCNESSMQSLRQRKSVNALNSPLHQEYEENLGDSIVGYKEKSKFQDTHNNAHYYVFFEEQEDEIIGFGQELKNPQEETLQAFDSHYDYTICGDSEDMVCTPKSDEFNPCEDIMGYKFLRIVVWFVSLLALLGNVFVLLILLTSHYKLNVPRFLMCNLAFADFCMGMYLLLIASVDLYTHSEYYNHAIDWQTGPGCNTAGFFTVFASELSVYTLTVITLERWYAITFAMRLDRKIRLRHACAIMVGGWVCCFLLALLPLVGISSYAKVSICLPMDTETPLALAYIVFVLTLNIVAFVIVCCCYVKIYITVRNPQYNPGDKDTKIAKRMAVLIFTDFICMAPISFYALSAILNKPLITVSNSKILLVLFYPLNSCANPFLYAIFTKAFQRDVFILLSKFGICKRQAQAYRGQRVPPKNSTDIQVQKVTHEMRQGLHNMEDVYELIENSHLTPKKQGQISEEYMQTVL

| Stimulation (%) of cyclic AMP, CHO cells expressing human TSHR; 20 µg/ml, diluted 1:10 [%] | Binder |
| --- | --- |
| 850 | B4 |
| 908 | B9 |
| 111 | B10 |

Biological target: T1, TSH receptor (detergent solubilised TSH receptor preparation) (UniProt P16473 21-764, limits assumed)
T1 construct: In some assays captured or labelled through MAb 4E31 F(ab)2; also called thyrotrophin receptor
Assay: 125I-TSH, TSHR coated tubes; 2 µg/ml
Method: (§1) In particular the MAb 4E31 reactive with the TSHR C terminus (10 μg/mL F(ab)₂ preparation in 0.1 M Na₂CO₃ pH 9.2) was added to plastic tubes (Nune Maxisorp, 200 μL per tube) and coating allowed to proceed overnight 4° C. After washing and post-coating (10 mg/mL bovine serum albumin) the tubes were washed again with assay buffer (10 mM Tris-HCl pH 7.8, 50 mM NaCl, 1 mg/mL bovine serum albumin, 0.1% Triton X-100). 200 μL of a detergent solubilised TSHR preparation was then added and incubated overnight at 4° C. followed by aspiration and washing steps. Thereafter, 20 μL of “start” buffer (10 mM Tris-HCl pH 7.8, 50 mM NaCl, bovine serum albumin 1 mg/mL, 6 mM NaN₃, 1% Triton X-100) was added to the TSHR coated tubes followed by 100 μL of purified MAb IgG or patient sera and incubated at room temperature for 2 hours with gentle shaking. […] The tubes were then washed twice with 1 mL of assay buffer, aspirated and counted in a gamma counter.

T1 sequence (P16473 21-764 limits assumed): as the sequence (P16473 21-764) above

| % inhibition of TSH binding [%] | Binder |
| --- | --- |
| 73.6 | B4 |
| 73.7 | B8 |
| 61 | B9 |
| 69.9 | B10 |

Biological target: T1, TSH receptor (detergent solubilised TSH …)
Assay: 125I-TSH, TSHR coated tubes; 20 µg/ml
Method: as §1

| % inhibition of TSH binding [%] | Binder |
| --- | --- |
| 83.3 | B4 |
| 81.3 | B8 |
| 76.4 | B9 |

Biological target: T1, TSH receptor (detergent solubilised TSH …)
Assay: 125I-TSH, TSHR coated tubes; tested at 10 µg/ml
Method: as §1

| % inhibition of TSH binding [%] | Binder |
| --- | --- |
| 64 | B5 |
| 53 | B6 |
| 45 | B7 |

Biological target: T1, TSH receptor (detergent solubilised TSH …)
Assay: solubilised TSHR, PEG method; IgG 100 µg/ml; competitor 125I-16E5 Fab

| % inhibition of 125I-16E5 Fab binding [%] | Binder |
| --- | --- |
| 24.2 | B3 |
| 17 | B11 |
| 70.4 | B4 |
| 69.2 | B8 |
| 67.6 | B9 |
